Laboratory results from the supplement of paper PMC10567573.
± gives the standard deviation.

Test: protein stability index of a GFP-peptide fusion (GPS, HEK-293T) (PSI 1-6); higher = more stable
[1] = treatment: DMSO, c terminus: a fixed tail appended
[2] = treatment: MLN4924 1 uM, 8 h, c terminus: a fixed tail appended
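Further: 24-mer peptide tiles fused after GFP, lentivirally expressed, FACS-sorted into six equal bins by GFP/DsRed ratio, decoded by Illumina sequencing, PSI is the read-weighted mean bin number.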

Sequence	protein stability index [1]	protein stability index [2]	protein stability index (treatment: DMSO, c terminus: native)	protein stability index (treatment: MLN4924 1 uM, 8 h, c terminus: native)
EEEEERWEWSPAGLQSYQQALLRI [SERTAD3]	3.46 ± 0.29	3.43 ± 0.17	–	–
EEIVFNLTNNVDLDNTKKKMEIYQ [MNAT1]	4.05 ± 0.39	4.02 ± 0.35	–	–
EEPELVFTLGDCDVIQALDLSVPL [FKBP8]	3.66 ± 0.28	3.48 ± 0.41	–	–
EETIASLQMEVCRLKKEEEDRIVT [CEP70]	4.65 ± 0.072	4.8 ± 0.32	–	–
EEVDTGAVNLIESGACGAFVHGLE [INTS4]	4.34 ± 0.39	4.85 ± 0.46	–	–
EFIMPDSAVVGDVLVLTKPLGTQV [SEPHS2]	2.3 ± 0.31	2.54 ± 0.32	–	–
EFLRVQEERILHQQVKCIITEEKV [VPS39]	3.08 ± 0.26	2.92 ± 0.3	–	–
EGCELPDLPSSLLLPEDMALRNLP [SMG5]	4.4 ± 0.1	4.49 ± 0.15	–	–
EGSADTEDRKLPAPGADVKVHRAR [EHMT1]	5.27 ± 0.44	5.41 ± 0.17	–	–
EGTLGYAIGGTYLGPAFRGLKGRT [SPSB2]	3.14 ± 0.1	3.06 ± 0.32	–	–
EIIKVTEQLIEAINNGDFEAYTKI [CAMK2D]	2.47 ± 0.12	2.63 ± 0.29	–	–
EKAVANFDRTEWVQIRRLEAAGES [ZC2HC1C]	4.49 ± 0.12	4.48 ± 0.26	–	–
EKDNSRRMLTDKEREMAEIRDQMQ [LMNB1]	5.3 ± 0.12	5.32 ± 0.13	–	–
EKGRALQIRDWRGGRLENQKPRGL [ZSWIM9]	4 ± 0.34	4.2 ± 0.35	–	–
EKSHQVLAQLLDTLLAIGTKLPEN [INTS4]	3.14 ± 0.82	3.2 ± 0.86	–	–
EKYKTQIDHYVGIARDQTKSIVEK [RTN3]	4.07 ± 0.2	4.15 ± 0.31	–	–
ELAFAEDLVLDEEGARAAGLGELG [ESRRA]	5.24 ± 0.2	5.19 ± 0.27	–	–
ELALFQMSVLWLEHDRETRMQYAP [KLHL14]	2.44 ± 0.58	2.46 ± 0.34	–	–
ELEMIGFIENNVSKLSLLLNDISR [TRIP13]	2.2 ± 0.31	2.63 ± 0.41	–	–
ELLSAPPPDLGAQRRHGWNPKDCS [SPSB2]	3.72 ± 0.14	3.48 ± 0.25	–	–
ELPLLTPCSKAVMSQALKATFSGF [ETS2]	2.62 ± 0.28	2.06 ± 0.65	–	–
ENEEMEQPMQNGEEDRPLGGGEGH [BEX3]	5.42 ± 0.15	5.41 ± 0.2	–	–

Sequence	protein stability index [1]	protein stability index [2]	protein stability index (treatment: DMSO, c terminus: native)	protein stability index (treatment: MLN4924 1 uM, 8 h, c terminus: native)
ENILSFMSYDEISQLRLVCKRMDL [FBXO28]	2.32 ± 0.21	2.35 ± 0.28	–	–
ENNMLQPETHIFTAPEEVPKVSDQ [DMRTC1]	5.57 ± 0.18	5.56 ± 0.21	–	–
ENWVCLSCYQVYCGRYINGHMLQH [HDAC6]	2.33 ± 0.76	2.54 ± 0.46	–	–
EPDALDDSLTSLQWLQEFSILNAK [FOXJ1]	3.75 ± 0.21	3.65 ± 0.11	–	–
EPGYIDSEIGTSDQIVPEYQEDSD [TRIB1]	5.69 ± 0.29	5.62 ± 0.19	–	–
EPMRDQVARTHLTEDTPKVNADIE [NSDHL]	5.32 ± 0.34	5.56 ± 0.075	–	–
EQASAFQEQEIDGKSLLLMTRNDV [SAMD13]	4.74 ± 0.12	4.78 ± 0.14	–	–
EQIRFVMKAHSFVRENVPRVLNSA [SOAT1]	2.58 ± 0.46	2.48 ± 0.41	–	–
EQLERIERKNAEMYKLSSEQFHEA [CHCHD6]	4.52 ± 0.46	4.78 ± 0.12	–	–
EQVAQLKQKVMTHVSNGCQLLLGV [JUNB]	2.33 ± 0.27	2.12 ± 0.13	–	–
ERALDATEVPFSITTDNLQCRERR [TEKT4]	4.88 ± 0.069	5.06 ± 0.11	–	–
ERAVKRMRHLSTGTMTGLAIQYAL [MATN2]	2.39 ± 0.44	2.22 ± 0.32	–	–
ERLKVMCEEALCSNLSVENVADTL [SPOPL]	3.84 ± 0.36	4.09 ± 0.39	–	–
ERYQKIGDTKRATPIEVLCENFPE [CSNK1G3]	4.59 ± 0.11	4.44 ± 0.28	–	–
ESFTMDDMSWTCGNQDYKYRVSDV [VDR]	3.08 ± 0.27	2.94 ± 0.13	–	–
EVKPVLEVLVGKTIEQSLLEVMEE [RSPH3]	2.48 ± 0.39	2.64 ± 0.48	–	–
EVPDSYTGPRLSFPLLPDHATALV [PPEF2]	3.23 ± 0.27	3.42 ± 0.28	–	–
EVRAKFKFSLLNAKREETKAMESQ [SPOPL]	4.06 ± 0.29	3.97 ± 0.33	–	–
EVREARDHKEPKEEINKNISDFGR [EHMT1]	5.18 ± 0.26	5.28 ± 0.17	–	–
EVVTPDNMCMGRTSRGKLGGQDSF [ETS1]	3.71 ± 0.16	3.87 ± 0.2	–	–
EYDDDDSAASTSFQPQPVQPQQGY [ZNF207]	5.32 ± 0.21	5.37 ± 0.26	–	–
FAVGYIKISWSTWGEMTLSLFSLL [SLC19A2]	3.18 ± 0.6	3.15 ± 0.34	–	–

Sequence	protein stability index [1]	protein stability index [2]	protein stability index (treatment: DMSO, c terminus: native)	protein stability index (treatment: MLN4924 1 uM, 8 h, c terminus: native)
FERIMKYERLARILLQEIPIRSIS [FBXO39]	2.73 ± 0.39	2.35 ± 0.4	–	–
FFHLSALKGYLYAVGGRNAAGELP [KLHL13]	2.56 ± 0.62	2.27 ± 0.26	–	–
FFIQTVRPKDTVMCYRVRWEEAAP [MYORG]	2.62 ± 0.73	2.56 ± 0.92	–	–
FFPQHPNFCEPQDYRPMNHEAFKD [CDC25B]	3.81 ± 0.33	4.09 ± 0.21	–	–
FGDVSERLALRQRLKCRSFKWYLE [GALNT9]	2.29 ± 0.59	2.54 ± 0.37	–	–
FGNRIKRVKLISNKGTETDNDPSC [PHTF1]	4.06 ± 0.29	4.05 ± 0.42	–	–
FGRGSRTVDLELELQIELLRETKR [ARFIP2]	2.26 ± 0.15	2.32 ± 0.26	–	–
FHGKYSTINPLWHIRHLGWNPDAR [GLT8D2]	2.57 ± 0.39	2.31 ± 0.21	–	–
FHPIKETVVEEPVDITPYLDQLDE [INTS3]	3.98 ± 0.67	4.5 ± 0.44	–	–
FIIHGFIDKGDESWVTDMCKVGAS [PNLIPRP1]	1.98 ± 0.25	2.65 ± 0.48	–	–
FIVIDAMLERIKHEKTVDIYGHVT [PTPRD]	3.04 ± 1.2	2.5 ± 1.1	–	–
FIYDMCGSNYANFELDLGKKVLNL [PTPN9]	3.01 ± 1.1	2.22 ± 1.5	–	–
FKKFIRRDFLLDEANGLLPDDKLT [SPOPL]	2.27 ± 0.097	2.41 ± 0.24	–	–
FKNSLLQKELKKAQMAKAAAEERA [WEE1]	4.37 ± 0.15	4.34 ± 0.087	–	–
FLANLHITALLNVSRRTSEACMTH [DUSP5]	3.13 ± 0.42	3.48 ± 0.7	–	–
FLDLFRYRVLLGHTLILMFIWFVC [SLC22A15]	2.73 ± 0.42	2.85 ± 0.71	–	–
FLGISIVGQSNERGDGGIYIGSIM [DVL3]	2.87 ± 0.99	2.61 ± 0.68	–	–
FLNDRLANYLEKVRQLERENAELE [KRT36]	3.21 ± 0.25	3.54 ± 0.49	–	–
FLQALSLAVDKQFEERKKLAAYI [TRIP13]	–	–	3.18 ± 0.71	2.54 ± 0.51
FLRCVTAALIYFAISITAIAKYSD [CMTM3]	3.41 ± 0.29	3.43 ± 0.32	–	–
FLVGLLFVQRSGNYFVTMFDDYSA [SLC6A17]	3.05 ± 0.76	3.27 ± 0.38	–	–
